# Measurements from US20230212319A1, “NOVEL ANTIGEN BINDING DOMAINS AND SYNTHETIC ANTIGEN RECEPTORS INCORPORATING THE SAME” (University of Southern California, priority 2020, published 2023).
# B1: 22154 (protein)
# chain: MALPVTALLLPLALLLHAARPACEVQLLESGGGLIQPGGSLRLSCAASGFTFSSHAMTWVRQAPGKGLEWVSAISGSGDYTHYADSVKGRFTISRDNSKNTVYLQMNSLRAEDSAVYYCAKDEDGGSLLGHRGQGTLVTVSSGTGGGGSGGGGSGGGGSEFSYVLTQPPSVSVAPGQTARITCGGNNIGGKSVHWYQQPPGQAPVVVVYDDSDRPSGIPERFSGSNSGNTATLTISRVEAGDEAVYYCQVWDSSSDHVVFGGGTKLTVLLEGQPKANPTVTLFPPSSEELQANKATLVCLISDFYPGAVTVAWKADGSPVKAGVETTKPSKQSNNKYAASSYLSLTPEQWKSHRSYSCQVTHEGSTVEKTVAPTECSGRADCGFTSESYQQGVLSATILYEILLGKATLYAVLVSALVLMAMVKRKDSRGRAKRSGSGATNFSLLKQAGDVEENPGPTSATMDWIWRILFLVGAATGAHSGPQVQLQESGGGLAQAGGSLRLSCAASGRTFSMGWFRQAPGKEREFVAAITYSGGSPYYASSVRGRFTISRDNAKNTVYLQMNSLKPEDTAVYYCAANPTYGSDWNAENWGQGTQVTVSSGSGGGGSGGGGSGGGGSFEQLQLQESGPGLVKPSETLSLTCTVSGGSISSSSYFWGWIRQPPGKGLEWIGSIYYSGITYYNPSLKSRVTISVDTSKNQFSLKLSSVTAADTAVYYCARHDGAVAGLFDYWGQGTLVTVSSATRASTKGPSVFPLAPSSKSTSGGTAALGCLVKDYFPEPVTVSWNSGALTSGVHTFPAVLQSSGLYSLSSVVTVPSSSLGTQTYICNVNHKPSNTKVDKRVEPKSCIPEDTFFPSPESSCDVKLVEKSFETDTNLNFQNLSVIGFRILLLKVAGFNLLMTLRLWSSRAKRSGSGVKQTLNFDLLKLAGDVESNPGPSRGHMTEYKPTVRLATRDDVPRAVRTLAAAFADYPATRHTVDPDRHIERVTELQELFLTRVGLDIGKVWVADDGAAVAVWTTPESVEAGAVFAEIGPRMAELSGSRLAAQQQMEGLLAPHRPKEPAWFLATVGVSPDHQGKGLGSAVVLPGVEAAERAGVPAFLETSAPRNLPFYERLGFTVTADVEVPEGPRTWCMTRKPGA
# B2: 22060 (protein)
# chain: MALPVTALLLPLALLLHAARPQLQLQESGPGLVKPSETLSLTCTVSGDSISSGDYYWGWIRQPPGKGLEWIGHIYYSGVTYYNPSLKSRVTISVDTSRNQFSLKLSSVTAADTAVYYCTREDSSNWRSRGQGTLVTVSSLEGSGGGGSGGGGSGEDLKNVFPPEVAVFEPSEAEISHTQKATLVCLATGFYPDHVELSWWVNGKEVHSGVCTDPQPLKEQPALNDSRYCLSSRLRVSATFWQNPRNHFRCQVQFYGLSENDEWTQDRAKPVTQIVSAEAWGRADCGFTSESYQQGVLSATILYEILLGKATLYAVLVSALVLMAMVKRKDSRGRAKRSGSGATNFSLLKQAGDVEENPGPTSMDWIWRILFLVGAATGAHSFEVQLLESGGGLIQPGGSLRLSCAASGFTFSSHAMTWVRQAPGKGLEWVSAISGSGDYTHYADSVKGRFTISRDNSKNTVYLQMNSLRAEDSAVYYCAKDEDGGSLLGHRGQGTLVTVSSTRIQNPDPAVYQLRDSKSSDKSVCLFTDFDSQTNVSQSKDSDVYITDKCVLDMRSMDFKSNSAVAWSNKSDFACANAFNNSIIPEDTFFPSPESSCDVKLVEKSFETDTNLNFQNLSVIGFRILLLKVAGFNLLMTLRLWSSRAKRSGSGVKQTLNFDLLKLAGDVESNPGPSRGHMTEYKPTVRLATRDDVPRAVRTLAAAFADYPATRHTVDPDRHIERVTELQELFLTRVGLDIGKVWVADDGAAVAVWTTPESVEAGAVFAEIGPRMAELSGSRLAAQQQMEGLLAPHRPKEPAWFLATVGVSPDHQGKGLGSAVVLPGVEAAERAGVPAFLETSAPRNLPFYERLGFTVTADVEVPEGPRTWCMTRKPGA
# B3: 22072 (protein)
# chain: MALPVTALLLPLALLLHAARPQLQLQESGPGLVKPSETLSLTCTVSGDSISSGDYYWGWIRQPPGKGLEWIGHIYYSGVTYYNPSLKSRVTISVDTSRNQFSLKLSSVTAADTAVYYCTREDSSNWRSRGQGTLVTVSSLEGQPKANPTVTLFPPSSEELQANKATLVCLISDFYPGAVTVAWKADGSPVKAGVETTKPSKQSNNKYAASSYLSLTPEQWKSHRSYSCQVTHEGSTVEKTVAPTECSPIKTDVITMDPKDNCSKDANDTLLLQLTNTSAYYMYLLLLLKSVVYFAIITCCLLRRTAFCCNGEKSRAKRSGSGATNFSLLKQAGDVEENPGPTSMDWIWRILFLVGAATGAHSFEVQLLESGGGLIQPGGSLRLSCAASGFTFSSHAMTWVRQAPGKGLEWVSAISGSGDYTHYADSVKGRFTISRDNSKNTVYLQMNSLRAEDSAVYYCAKDEDGGSLLGHRGQGTLVTVSSTRIQNPDPAVYQLRDSKSSDKSVCLFTDFDSQTNVSQSKDSDVYITDKCVLDMRSMDFKSNSAVAWSNKSDFACANAFNNSIIPEDTFFPSPESSCDVKLVEKSFETDTNLNFQNLSVIGFRILLLKVAGFNLLMTLRLWSSRAKRSGSGVKQTLNFDLLKLAGDVESNPGPSRGHMTEYKPTVRLATRDDVPRAVRTLAAAFADYPATRHTVDPDRHIERVTELQELFLTRVGLDIGKVWVADDGAAVAVWTTPESVEAGAVFAEIGPRMAELSGSRLAAQQQMEGLLAPHRPKEPAWFLATVGVSPDHQGKGLGSAVVLPGVEAAERAGVPAFLETSAPRNLPFYERLGFTVTADVEVPEGPRTWCMTRKPGA
# B4: 22066 (protein)
# chain: MALPVTALLLPLALLLHAARPQLQLQESGPGLVKPSETLSLTCTVSGDSISSGDYYWGWIRQPPGKGLEWIGHIYYSGVTYYNPSLKSRVTISVDTSRNQFSLKLSSVTAADTAVYYCTREDSSNWRSRGQGTLVTVSSLEVAALEREDLKNVFPPEVAVFEPSEAEISHTQKATLVCLATGFYPDHVELSWWVNGKEVHSGVCTDPQPLKEQPALNDSRYCLSSRLRVSATFWQNPRNHFRCQVQFYGLSENDEWTQDRAKPVTQIVSAEAWGRADCGFTSESYQQGVLSATILYEILLGKATLYAVLVSALVLMAMVKRKDSRGRAKRSGSGATNFSLLKQAGDVEENPGPTSMDWIWRILFLVGAATGAHSFEVQLLESGGGLIQPGGSLRLSCAASGFTFSSHAMTWVRQAPGKGLEWVSAISGSGDYTHYADSVKGRFTISRDNSKNTVYLQMNSLRAEDSAVYYCAKDEDGGSLLGHRGQGTLVTVSSTRIQNPDPAVYQLRDSKSSDKSVCLFTDFDSQTNVSQSKDSDVYITDKCVLDMRSMDFKSNSAVAWSNKSDFACANAFNNSIIPEDTFFPSPESSCDVKLVEKSFETDTNLNFQNLSVIGFRILLLKVAGFNLLMTLRLWSSRAKRSGSGVKQTLNFDLLKLAGDVESNPGPSRGHMTEYKPTVRLATRDDVPRAVRTLAAAFADYPATRHTVDPDRHIERVTELQELFLTRVGLDIGKVWVADDGAAVAVWTTPESVEAGAVFAEIGPRMAELSGSRLAAQQQMEGLLAPHRPKEPAWFLATVGVSPDHQGKGLGSAVVLPGVEAAERAGVPAFLETSAPRNLPFYERLGFTVTADVEVPEGPRTWCMTRKPGA
# B5: 22067 (protein)
# chain: MALPVTALLLPLALLLHAARPQLQLQESGPGLVKPSETLSLTCTVSGDSISSGDYYWGWIRQPPGKGLEWIGHIYYSGVTYYNPSLKSRVTISVDTSRNQFSLKLSSVTAADTAVYYCTREDSSNWRSRGQGTLVTVSSLEAAAKEDLKNVFPPEVAVFEPSEAEISHTQKATLVCLATGFYPDHVELSWWVNGKEVHSGVCTDPQPLKEQPALNDSRYCLSSRLRVSATFWQNPRNHFRCQVQFYGLSENDEWTQDRAKPVTQIVSAEAWGRADCGFTSESYQQGVLSATILYEILLGKATLYAVLVSALVLMAMVKRKDSRGRAKRSGSGATNFSLLKQAGDVEENPGPTSMDWIWRILFLVGAATGAHSFEVQLLESGGGLIQPGGSLRLSCAASGFTFSSHAMTWVRQAPGKGLEWVSAISGSGDYTHYADSVKGRFTISRDNSKNTVYLQMNSLRAEDSAVYYCAKDEDGGSLLGHRGQGTLVTVSSTRIQNPDPAVYQLRDSKSSDKSVCLFTDFDSQTNVSQSKDSDVYITDKCVLDMRSMDFKSNSAVAWSNKSDFACANAFNNSIIPEDTFFPSPESSCDVKLVEKSFETDTNLNFQNLSVIGFRILLLKVAGFNLLMTLRLWSSRAKRSGSGVKQTLNFDLLKLAGDVESNPGPSRGHMTEYKPTVRLATRDDVPRAVRTLAAAFADYPATRHTVDPDRHIERVTELQELFLTRVGLDIGKVWVADDGAAVAVWTTPESVEAGAVFAEIGPRMAELSGSRLAAQQQMEGLLAPHRPKEPAWFLATVGVSPDHQGKGLGSAVVLPGVEAAERAGVPAFLETSAPRNLPFYERLGFTVTADVEVPEGPRTWCMTRKPGA
# System: RAJI cells
# Assay: JNG assay, co-culture with RAJI cells
# Format: cell-based
# Conditions: JNG cells expressing construct, co-culture with Raji
# Procedure, shortened: (§1)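 Jurkat NFAT-GFP (JNG) cells stably transduced with SARs by lentivirus, with drug selection where the construct carried a resistance gene, then co-cultured with target cells at E:T ~1:2 for ~4–18 h. % GFP-positive cells measured by FACS against parental JNG; +/- to 5+ correspond to ~5–50% GFP-positive.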
row,Molecule,NFAT-GFP ASSAY: Raji
1,B1,"4+ (refer to approximately 5%, 10%, 20%, 30%, 40% and 50% GFP positive cells)"
2,B2,"2+ (refer to approximately 5%, 10%, 20%, 30%, 40% and 50% GFP positive cells)"
3,B3,"+ (refer to approximately 5%, 10%, 20%, 30%, 40% and 50% GFP positive cells)"
4,B4,"+/- (refer to approximately 5%, 10%, 20%, 30%, 40% and 50% GFP positive cells)"
5,B5,"+/- (refer to approximately 5%, 10%, 20%, 30%, 40% and 50% GFP positive cells)"

# System: L363 cells
# Assay: JNG assay, co-culture with L363 cells
# Format: cell-based
# Conditions: co-culture with L363
# Procedure, shortened: as §1
row,Molecule,NFAT-GFP ASSAY: L363
1,B1,"2+ (refer to approximately 5%, 10%, 20%, 30%, 40% and 50% GFP positive cells)"
2,B2,"2+ (refer to approximately 5%, 10%, 20%, 30%, 40% and 50% GFP positive cells)"
3,B3,"+ (refer to approximately 5%, 10%, 20%, 30%, 40% and 50% GFP positive cells)"
4,B4,"+/- (refer to approximately 5%, 10%, 20%, 30%, 40% and 50% GFP positive cells)"
5,B5,"+ (refer to approximately 5%, 10%, 20%, 30%, 40% and 50% GFP positive cells)"

# System: Nalm6 cells
# Assay: JNG assay, co-culture with Nalm6 cells
# Format: cell-based
# Conditions: co-culture with Nalm6
# Procedure, shortened: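 Stable SAR lines in NFAT-GFP Jurkat background; coculture with target line ~4–18 h, E:T ~1:2; flow readout of GFP; positive if %GFP+ exceeds parental line; semi-quantitative grading +/- (~5%) through 5+ (~50%).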
row,Molecule,NFAT-GFP ASSAY: Nalm6
1,B1,"+ (refer to approximately 5%, 10%, 20%, 30%, 40% and 50% GFP positive cells)"
2,B2,"+/- (refer to approximately 5%, 10%, 20%, 30%, 40% and 50% GFP positive cells)"
3,B3,"+/- (refer to approximately 5%, 10%, 20%, 30%, 40% and 50% GFP positive cells)"
4,B4,"+/- (refer to approximately 5%, 10%, 20%, 30%, 40% and 50% GFP positive cells)"
5,B5,"+/- (refer to approximately 5%, 10%, 20%, 30%, 40% and 50% GFP positive cells)"
